# Results reported in publication PMC2770664.
# Like-named read-outs stand apart in the source and are kept apart here.
# B1: 50 bp duplex (dsDNA)
# DNA 1: TTCAATCCCCGTCTGTCCCCCGATCCCCTGCTCGTAGGCGTGCTTGACCG
# DNA 2: CGGTCAAGCACGCCTACGAGCAGGGGATCGGGGGACAGACGGGGATTGAA
# B2: 50 bp duplex with tandem AA and CT loops (dsDNA)
# DNA 1: ACAGTGGAGTAGGCTACACCTACTCTTTGTAAGAATTTTGCAAAAAGTAC
# DNA 2: GTACTTTTTGCAAAATTCAAACAAAGAGTTCGTGTAGCCTACTCCACTGT
# Experiments:
# [1] = target: T1, HMO2 (NHP10) (Saccharomyces cerevisiae, UniProt Q03435 1-203); assay: EMSA
# T1 sequence: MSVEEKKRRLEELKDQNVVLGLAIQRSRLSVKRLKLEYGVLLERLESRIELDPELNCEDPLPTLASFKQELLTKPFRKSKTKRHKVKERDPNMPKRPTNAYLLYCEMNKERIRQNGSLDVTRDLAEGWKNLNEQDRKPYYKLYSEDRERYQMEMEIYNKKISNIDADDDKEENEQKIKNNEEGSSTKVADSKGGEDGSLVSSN
# [2] = target: T1, HMO2 (NHP10); assay: EMSA; remark: listed apart in the source
Binder,binding result [1],binding result [2]
B1,no binding,–
B2,–,binds
